Experimental data as given in paper PMC6089609 (Methods in cell biology, 2015).

Target: the molecule itself
Assay: negative stain and cryo-electron microscopy of assemblies on liposomes

B1: EndophilinA1 (natural protein, human, UniProt Q99962 1-352, looked up)
chain: MSVAGLKKQFHKATQKVSEKVGGAEGTKLDDDFKEMERKVDVTSRAVMEIMTKTIEYLQPNPASRAKLSMINTMSKIRGQEKGPGYPQAEALLAEAMLKFGRELGDDCNFGPALGEVGEAMRELSEVKDSLDIEVKQNFIDPLQNLHDKDLREIQHHLKKLEGRRLDFDYKKKRQGKIPDEELRQALEKFDESKEIAESSMFNLLEMDIEQVSQLSALVQAQLEYHKQAVQILQQVTVRLEERIRQASSQPRREYQPKPRMSLEFPTGDSTQPNGGLSHTGTPKPSGVQMDQPCCRALYDFEPENEGELGFKEGDIITLTNQIDENWYEGMLHGHSGFFPINYVEILVALPH
Q: Does B1 bind?
A: Result: binds
